How the values were obtained:
MYB44 S145D = MYB44 S145D (Arabidopsis thaliana? (Arabidopsis, …, UniProt Q9FDW1 1-305, S145D)); experiment: EMSA; no discernible difference from wild type; 10 mM Tris pH 8.0, 5 mM MgCl2, 100 mM KCl, 0.02% Triton X-100, 0.1 mg/ml BSA, 0.25% Tween, 2.5 mM DTT, 3 ng/ul poly(dIdC); 30 min room temperature; 5% PAGE in 0.5x TBE or TAE (TAE main) at 4 C; details: protein: recombinant; label: 5' Dy782 (Methods; called IRDye in Results); (only one strand printed)
MYB44 S145A = MYB44 S145A (Arabidopsis thaliana? (Arabidopsis, …, UniProt Q9FDW1 1-305, S145A)); experiment: as above; details: protein: recombinant; label: 5' Dy782 (Methods; called IRDye in Results); (only one strand printed)
Sequence of MYB44 S145A (Arabidopsis thaliana? (Q9FDW1 whole entry S145A): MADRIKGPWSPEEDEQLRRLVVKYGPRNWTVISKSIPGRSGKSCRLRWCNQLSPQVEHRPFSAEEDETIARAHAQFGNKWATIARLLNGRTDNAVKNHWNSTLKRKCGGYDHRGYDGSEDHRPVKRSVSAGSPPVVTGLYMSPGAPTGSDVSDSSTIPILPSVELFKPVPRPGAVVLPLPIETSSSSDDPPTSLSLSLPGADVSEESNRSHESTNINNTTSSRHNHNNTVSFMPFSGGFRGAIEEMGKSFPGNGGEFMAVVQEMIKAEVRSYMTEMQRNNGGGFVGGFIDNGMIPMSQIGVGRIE

Sequence of MYB44 S145D (Arabidopsis thaliana? (Q9FDW1 whole entry S145D): as the sequence (Q9FDW1 whole entry S145A) above, with A145D counted along it

B1: MBSII (dsDNA)
DNA 1: AGCTTCAAAAGTTAGTTACG
DNA 2: CGTAACTAACTTTTGAAGCT
Question: Does B1 bind (MYB44 S145D)?
Answer: binds

Question: Does B1 bind (MYB44 S145A)?
Answer: binds
